From the supplement of paper PMC10567573

B1: OR3A1 (parent)
chain: PMYFFLGNLSVLDVGCISVTVPSM

Variants of: B1
Test: protein stability index of a GFP-peptide fusion (GPS, HEK-293T) (PSI 1-6); higher = more stable
Details: c terminus: a fixed tail appended
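Also: lentivirally expressed fusions sorted by FACS into six bins by GFP to DsRed ratio, PSI derived from sequencing read proportions per bin multiplied by bin number.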

Point of comparison: S23N, protein stability index 2.58. Against it:
- V19K — higher, 3.29
- V19P — lower, 2.55
- V19C — higher, 3.96
- V19L — lower, 2.42
- V19H — higher, 2.77
- V19Y — higher, 2.93
- V19A — lower, 1.59
- V19D — higher, 3.51
- V19T — higher, 4.48
- V19F — higher, 3.66
- V19Q — higher, 3.27
- V19S — higher, 3.48
- V19I — lower, 2.3
- V19W — lower, 1.96
- V19M — higher, 2.97
- V19E — lower, 1.14
- V19R — lower, 2.38
- S18V — lower, 1.8
- S18Q — lower, 2.54
- S18K — higher, 2.67
- S18A — higher, 3.06
- S18I — higher, 3.52
- S18Y — lower, 2.26
- S18T — higher, 2.94
- S18G — lower, 2.33
- S18P — lower, 2.5
- S18R — higher, 3.87
- S18E — higher, 2.7
- S18N — higher, 3.31
- S18H — higher, 3.06
- S18F — lower, 1.68
- S18D — higher, 2.66
- S18W — lower, 2.37
- V14C — lower, 1.99
- V14A — higher, 3.36
- V14P — higher, 4.21
- V14Q — lower, 1.89
- V14L — higher, 4.23
- V14Y — higher, 4.29
- V14T — higher, 3.36
- V14H — lower, 2.23
- V14R — lower, 1.39
- V14M — higher, 3.24
- V14D — lower, 1.96
- V14N — higher, 3.31
- V14G — higher, 3.25
- S23G — higher, 2.99
- S23T — higher, 2.84
- S23I — higher, 2.86
- S23Q — higher, 3.82
- S23R — lower, 2.15
- S23Y — higher, 4.04
- S23M — higher, 2.67
- S23H — higher, 2.76
- S23P — lower, 2.46
- S23V — higher, 4.29
- S23D — higher, 4.24
- S23W — higher, 2.84
- S23A — higher, 3.86
- S23K — lower, 2.42
- S23F — lower, 1.78
- S23L — higher, 3.71
- S23C — lower, 2.56
- D13C — higher, 4.05
- D13Y — lower, 2.55
- D13N — lower, 2.1
- D13L — higher, 3.26
- D13F — higher, 3.38
- D13E — higher, 3.63
- D13M — lower, 2.35
- D13S — lower, 2.33
- D13V — lower, 1.73
- D13Q — lower, 2.48
- D13G — lower, 2.55
- D13I — higher, 3.37
- D13K — higher, 2.74
- D13P — higher, 3.47
- P1A — lower, 2.23
- P1S — higher, 2.89
- P1E — lower, 2.01
- P1T — lower, 2.16
- P1I — higher, 2.88
- P1L — higher, 4.36
- P1C — lower, 2.46
- P1N — higher, 3.87
- P1R — higher, 3.81
- P1Q — higher, 3.32
- P1Y — lower, 2.1
- P1H — higher, 2.79
- S10Q — lower, 1.03
- S10M — higher, 3.29
- S10F — higher, 3.53
- S10K — higher, 3.48
- S10L — lower, 2.05
- S10R — lower, 2.27
- S10Y — higher, 3.38
- S10W — higher, 3.31
- S10E — higher, 3.25
- S10C — higher, 2.81
- I17N — higher, 4.43
- I17E — lower, 2.17
- I17D — higher, 3.15
- I17R — higher, 3.71
- I17H — higher, 2.75
- I17W — higher, 3.68
- I17F — higher, 3.32
- I17P — higher, 3.39
- I17S — higher, 3.03
- I17A — higher, 3.4
- I17M — higher, 2.76
- I17Y — lower, 1.63
- I17K — higher, 2.97
- M2I — lower, 2.31
- M2E — lower, 2.1
- M2H — higher, 2.67
- M2G — lower, 2.32
- M2K — higher, 3.24
- M2T — lower, 2.15
- M2L — higher, 4.31
- F4R — lower, 2.19
- F4T — lower, 1.26
- F4K — lower, 1.52
- F4M — higher, 4.21
- F4P — higher, 3.27
- F4S — lower, 1.91
- F4D — higher, 2.63
- L12D — higher, 3.05
- L12E — lower, 1.85
- L12M — lower, 1.62
- L12A — lower, 2.37
- L12F — lower, 2.22
- L12S — lower, 1.53
- L12I — higher, 3.78
- L12T — higher, 4.2
- L12Y — higher, 3.05
- L12C — higher, 2.83
- L12G — lower, 2.35
- L12N — lower, 1.49
- L12H — higher, 2.78
- F5N — higher, 2.82
- F5S — higher, 3.9
- F5E — lower, 1.46
- F5D — lower, 2.06
- F5H — higher, 2.64
- F5P — lower, 1.79
- F5V — lower, 2.3
- F5G — lower, 1.83
- Y3V — higher, 4.51
- Y3C — higher, 4.31
- Y3F — higher, 2.74
- Y3T — higher, 4.47
- Y3H — higher, 3.35
- Y3M — lower, 2.3
- Y3N — lower, 2.37
- Y3G — lower, 2.22
- L9D — lower, 2
- L9A — lower, 2.42
- L9T — higher, 2.59
- L9S — lower, 1.99
- L9R — higher, 3.52
- L9Q — lower, 1.96
- L9E — higher, 3.5
- L9K — higher, 2.86
- L9C — higher, 3.93
- G7Y — higher, 2.69
- G7T — higher, 2.84
